From the nanobody polyreactivity screen of Harvey et al. (2022)

Experiment: yeast display, Sf9 membrane polyspecificity reagent, FACS + sequencing; frameworks hold sequencing errors
In short: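 Galactose induction of a Saccharomyces cerevisiae BJ5465 synthetic nanobody display library ran 36–48 hours. The cells were then stained for 1 hour at 4 °C with 10% biotinylated, detergent-solubilized Sf9 membrane reagent, pulled down on streptavidin microbeads and FACS-sorted into low and high (top ~1%) gates on expression and reagent-binding fluorescence. Labels for polyreactivity follow the gate of origin.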
For “QVQLEESGGGLVQAGGSLRLSCAASGSIFGFYAMGWYRQAPGKERELVAAISQRGGNTYYADSVKGRFTISRDNAKNTVYLQMNSLKPEDTAVYYCATDKHPYKRHWYYTYDYWGQGTQLTVSS”, the “polyreactivity (PSR sort gate)” value was “high polyreactivity”.
For “QVQLVESGGGLVQAGGSLRLSCAASGRTFKYYAMGWYRQAPGKERELVAAISGSGGSTYYADSVKGRFTISRDNAKNTVYLQMNSLKPEDTAVYYCATGGGKTRSYNYWGQGTQVTVSS”, the “polyreactivity (PSR sort gate)” value was “high polyreactivity”.
With “QVQLVESGGGLVQAGGSLRLSCAASGRIFSQNAMGWYRKAPGKERELVAAIRYSTGSTYYADSVKGRFTISRDNAKNTVYLQMNSLKPEDTAVYYCAADRWVSGYRRPRRGQAHYYWGQGTQVTVSS” the “polyreactivity (PSR sort gate)” value was “high polyreactivity”.
For “QVQLVESGGGLVQAGGSLRLSCAASGFTFRTYAMGWYRQAPGKERELVAGISQGGGSTYYADSVKGRFTISRDNAKNTVYLQMKSLKTEVTAVYYCAKARNSNARFGYWGQGTQVTVSS”, the “polyreactivity (PSR sort gate)” value was “high polyreactivity”.
For “QVQLVESGGGLVQAGGSLRLSCAASGRIFYFYAMGWYRQAPGKEMELVAAISTSGGSTYYADSVKGRFTISRDNAKNTVYLQMNSLKPEDTAVYYCNADGYQSRWYYYNYDYWGQGTQVTVSS”, the “polyreactivity (PSR sort gate)” value was “low polyreactivity”.
In the case of “QVQLQESGGGLVQVGGSQRLSCAASGNIFFNYAMGWYRHAQGKEREFDASINHGTSINYEDSVKGRFTISRDNAKNTVYLQMNSLKPEDTAVYYCAADLSWTDNLFYWGQGTQVTVSS”, the “polyreactivity (PSR sort gate)” value is reported as “low polyreactivity”.
With “QVQLVESGGGLVQAGGSLRLSCAASGRTFYRYAMGWSRQAPGKERELVAGISGSGGRTYYADSVKGRFTISRDNAKNTVFLQMNSLKPEDTAVYYCNAYPHAYTGSTREGDYWGQGTQVTVSS” the “polyreactivity (PSR sort gate)” value was “high polyreactivity”.
For “QVQLVDSGGGLVQAGGSLRLSCAASGSILESNVMGWYRQAPGKERELVASISSSGDSTYADSVKGRFTISRDNAKNTVYLQMNILKPEYTAVYYCAADRWYWTYALYYWGQGTQVTVSS”, the “polyreactivity (PSR sort gate)” value was “low polyreactivity”.
With “QVQLVESGGGLVQAGGSLRLSCAASGSTSYFNVMGWYRQAPGKERELVAAISWSGGSTYADSVKGRFTISRDNAKNTVYLQMNSLKPEDTAVYYCNKDYGYVQLRFYGPGYYWGQGTQVTVSS” the “polyreactivity (PSR sort gate)” value was “low polyreactivity”.
For “QVQLVESGGGLVQAGGSLRLSCAASGITFFYYAMGWYRQAPGKERELVAAINWSGRTYYADSVKGRFTISRDNAKNTVYLQMNSLKPEDTAVYYCAAVTYGPGVSGMDYWGQGTQVTVSS”, the “polyreactivity (PSR sort gate)” value was “low polyreactivity”.
In the case of “QVQLVESGGGLVQAGGSLRLSCPASGRIIAWYAMGWYRQAPGKERELVAVITSSGGSTYYADSVKGRFTISRDNAKNTVYFMMNRLKPEDTAVYYCARKVVSPAWSHDFYYWGLGTQVTVSS”, the “polyreactivity (PSR sort gate)” value is reported as “low polyreactivity”.
With “QVQLVESGGGLVQAGGSLRLSCAASGITFPRYVMGWYRQAPGKEREFVAAINYSGGRTYYADSVKGRFTISRDNAKNTVYLQMNSLKPEDTAVYYCAVDLHVWPFWYDYWGQGTQVTVSS” the “polyreactivity (PSR sort gate)” value was “high polyreactivity”.
With “QVQLVESGGGLVQAGGSLRLSCAASGSIFGVYDMGWYRQAPGKEREVVAVINSNGGSTYYADSVKGRFTISRDNAKNTVYLQMNSLKPEDTAVYYCAADYQSYVYIGYGYWGQGTQVTVSS” the “polyreactivity (PSR sort gate)” value was “low polyreactivity”.
In the case of “QVQLGESVVCLDQAGVSLPLSCAASGFTFKYYTMRWFRQAPGKERELVAAISRRGGSTYYADSVKGRFTISRDNAKNTVYLQMKSLKPEDTAVYYCAADYRYVSTPYGYDYWGQGTQVTVSS”, the “polyreactivity (PSR sort gate)” value is reported as “high polyreactivity”.
With “QVHLVESGGGLVQAGGRLRLSCAASGSIFDRYAMGWYRQAPGKEREFVARIRSSTGGTDYADSVKGRFTISRDNAKNTVYLQMNILKPEDTAVYYCAASSSHYYYWIQGSYWGRGVYWGQGSQVTVSS” the “polyreactivity (PSR sort gate)” value was “high polyreactivity”.
In the case of “QVQLVESGGGLVQAGGSLRLSCAASGITFKFNAMGWYRQAPGKERELVAAISVRGGRTYYADSVKGRFTISRDNAKNTVYLQMNSLKPEDTAVYYCAATDWFYSYYLGYGYGYWGQGTQVTVSS”, the “polyreactivity (PSR sort gate)” value is reported as “high polyreactivity”.
With “QVQRVESGGGLVQAGGSLRLSCAASGANFSRYAMGWYRPAPGKERELVAAITSGGSTNYADSVKGRFTISRDNAKNTVYLQMTSLKPEDTAVYYCNKRYVVYPGNYWRYDYWGQGTQVTVSS” the “polyreactivity (PSR sort gate)” value was “high polyreactivity”.
With “QVQLVESGGGLVQAGGSLRLSCAASGSIFIWYSMGWYRQAPGKERELVASITYSAGRTYYADSVKGRFTISRDNAKNTVYLQMNSLKPEDTAVYYCAADSPYVYTLDSYGEGDYWGQGSQVTVSS” the “polyreactivity (PSR sort gate)” value was “low polyreactivity”.
With “QVQLVESGGVLVQAGGSLRISCAASGFIFAYNAMGWYRQAPGKETELVAAISWNGGNTYYADSVKGRFTISRDNAKNTVYLQMNSLKPEDTAVYYCAAIPKPFRSYGYWGKGTQVTVSS” the “polyreactivity (PSR sort gate)” value was “high polyreactivity”.
For “QVQLVESGGGLVQAGGSLRLSCAASGRIFYPYAMGLYRQAPGKEREFVADISSAGSTYYADSVKGRFTISRDNAKNTVYLQMNSLKPEDTAVYYCAADRTSGAYYFRFLYDRDYWGQGTQVTVSS”, the “polyreactivity (PSR sort gate)” value was “low polyreactivity”.
With “QVQLVESGGGLVQAGGSLRLSCAASGSTIFENVMGWYRQAPGKEREFVAAINTSGGSTYYADSVKGRFTISRDNAKNTVYLQMNSLKPEDTAVYYCARDSYWEMDYWGQGTQVSVSS” the “polyreactivity (PSR sort gate)” value was “low polyreactivity”.
For “QVQLVESGGGLVQAGGSLRLSCAASGRIFVTYVMGWYRQAPGKERELVAAISRRGGTTYYADSVKGRFTISRDNAKNTVYLQMNSLKPEDTAVYYCNVARDYAVESGYWGQGTQVTVSS”, the “polyreactivity (PSR sort gate)” value was “high polyreactivity”.
With “QVQLEESGGGLVQAGGILRLSCAASGFIIRRNALGLYRKAAGQERELVATIRASGGRTYYADSVKGRFTISRDNAKNTVYLQMNSVKPEDTAVYYCAAFRWYKPHDYWGQGTQVTVSS” the “polyreactivity (PSR sort gate)” value was “high polyreactivity”.
With “QVQLVESGGGLVQAGGSLSLTCAASGSTFPGYPMGWYRQAPGKERELVAAINWRGDSTYYADSVKGRFTISRDNAKNTVYLQMNSLKPEDTAVYYCAAVRGTGTRRYDYWGQGTQVTVSS” the “polyreactivity (PSR sort gate)” value was “high polyreactivity”.
With “QVQLVESGGGLVQAGGSLRLSCAASGFTFPGNAMGWYRQAPGKEREFVAAITRSSGSTSYADSVKGRFTISRDNAKNTVYLQMTSLKPEDTAVYRDYWGQGTQVTVSS” the “polyreactivity (PSR sort gate)” value was “low polyreactivity”.
With “QVKRVESGGGLVQAGGSLRLSCAASGIIFTYYAMGWYRQAPGKERELVAAISWTGGRTYFADSVKGRFTISRDNAKNTVYLQMNSLKREDTAVYYCAAKQYTRFGYYYWGQGTQVTVSS” the “polyreactivity (PSR sort gate)” value was “high polyreactivity”.
For “QVQLVESGGGLVQAGGSLRLSCAASGRIFTRYTMGWYRQAPGKERELVAAISSSDSSTYYADSVKGRFTISRDNAKNTVYLQMNSLKPEDTAVYYCNADRLFYEIYDYGAVRIGYDYWGQGTQVTVSS”, the “polyreactivity (PSR sort gate)” value was “low polyreactivity”.
In the case of “QVQLVESGGGIVQAGGSLRLSCAASGSTFATYTMGWYRQAPGKERELVAAISSRGGSTYYADSVKGRFTISRDNAKNTVYLQMNSLKPEDTAVYYCNARRSTDPARYYWGQGSQVTVSS”, the “polyreactivity (PSR sort gate)” value is reported as “high polyreactivity”.
In the case of “QVQLVESGGGLVQAGGSLRLSCAASGSTFDSYAMGWYRQAPGKERELVAAITTTGGSTFYADSVKGRFTISRDNAKNTVYLQMNSLKPEDTAVYFCAADDGWQEFEYWGQGTQVTVSS”, the “polyreactivity (PSR sort gate)” value is reported as “low polyreactivity”.
In the case of “QVQLVESGGGLVQAGGSLRLSCAASGSTFRWYAMGWYRQAPGKERELVAAITSSGSTYYADSVKGRFTISRDNAKNTVYLQMNSLKPEDTAVYYCAARANGYWNTYEHDYWGQGIQVTVSS”, the “polyreactivity (PSR sort gate)” value is reported as “low polyreactivity”.
In the case of “QVQLVESGGGLVQAGGSLRLSCAASGSIFWLYAMGWYRQAPGKESELVAAIDSGDSTKYADSVKGRFTISRDNAKNTVYLQMNSLKPEDTAVYYCNASRRYHVRAPYDYWGQGTQVTVSS”, the “polyreactivity (PSR sort gate)” value is reported as “low polyreactivity”.
In the case of “QVQLVESGGGLVQAGGSLRLSCAASGRTFYHYVMGWYRQEPGKERELVAAITSRGGSTYYADSVKGRFTISRDNAKNTVYLQMNSLKPEDTAVYYCAARLNYGNKYDYWGQGTQVTVSS”, the “polyreactivity (PSR sort gate)” value is reported as “high polyreactivity”.
For “QVQLVESGGGLVQAGGSLRLSCAASGFIFYRYAMGWYRQAPGKEREFVAVISKSGGRTYYADSVKGRFTISRDNAKNTVYLQMNSLKPEDTAVYYCNRVYRPSRYDYWGQGTQVTVSS”, the “polyreactivity (PSR sort gate)” value was “high polyreactivity”.
For “QVQLVESGGGLVQAGGSLRLSCAASGSILDIYAMGLYRQAPGKERELVAGISTSGGSTYYADSVMGRFTFSRDNAKITVYLQMNSLKPEDTAVYYCAKDYGYQGHTSTLYWAYLEYDFWGQVTQVTVSS”, the “polyreactivity (PSR sort gate)” value was “low polyreactivity”.
For “QVQLVESGGGLVQAGGSLRLSCAASGSTVGYYDMGWYRQAPGKERELVATITKSGGTTRYADSVKGRFTISRDNAKNTVYLQMNSLKPEDTAVYYCAADGTWRLLDDYWGQGTQVTVSS”, the “polyreactivity (PSR sort gate)” value was “low polyreactivity”.
With “QVQLVESWGGLVHAGGSLPLSCADSGITFFYYAMGWYRQAPGKEREFVAAISTSGGRTYYADSVKGRFTISRDNAKNTVYLQMNSLKPEDTAVYYCAARSRVPPAGPRYDYWGQGTQVTVSS” the “polyreactivity (PSR sort gate)” value was “high polyreactivity”.
For “QVQLVESGGGLVQAGGSLRLSCAASGIIFDINAMGWYRQAPGKERELVAAITTSVDSTYYADSVKGRFTISRDNAKNTVYLQMNRLKPEDTAVYYCAVAFVQFTQYDYWGQGTQVTVSS”, the “polyreactivity (PSR sort gate)” value was “low polyreactivity”.
In the case of “QVQLVESGGGLVQAGGSLRLRCAASGSTFSRYAMGWYRQAAGKERELVAAISWSGGSTYYADSVKGRFTISRDNAKNTVYLQMNSLKPEYTAVYYCAAYTYSFRANHDFWGQGTQVTVSS”, the “polyreactivity (PSR sort gate)” value is reported as “high polyreactivity”.
In the case of “QVQLVESGGGLVQAGGSLRLSCAASGFTFHNYAMGWYRQAPGKERELVAVIRWRGGSTYYADSVKGRFTISRDNAKNTVYLQMNSLKPEDTAVYYCNALFRYSRDYWGQGTQVTVSS”, the “polyreactivity (PSR sort gate)” value is reported as “high polyreactivity”.
In the case of “QVKLVESGGGLVQAGGSLRLSCAASGRTFYLYAMGWYRQAPGKERELVARITSGGTTNYADSVKGRFTISRDNAKNTVYLQMNSLKPEDTAVYYCAADPEGLGRVASRYFHFDYWGQGTQVTVSS”, the “polyreactivity (PSR sort gate)” value is reported as “low polyreactivity”.
With “QVQLVESGGGLVQAGGSLRLSCPASGFTFYRYAMGWYRQSPGKEREFVAAITWSGGSTYYADSVKGRFTISRDNAKNTVYLQMNSLKPEDTAVYYCAAYVALDGTREYDYWGQGTQVTVSS” the “polyreactivity (PSR sort gate)” value was “high polyreactivity”.
In the case of “QVQLVESGGCLVQAGGSLRLSCAASGFIFRYNAMGWYRQAPGKERELVAAISWSGTTYYADSVKGRFTISRDNAKNTVYLQMNSLKPEDTAVFYCAAGRLFYGYRDFDYWGQGTQVTVSS”, the “polyreactivity (PSR sort gate)” value is reported as “low polyreactivity”.
With “QVQLVESGGGLVQAGGSLRLSCAASGITFWNYAMGWYRQAPGKERELVARISRGGSTNYADSVKGRFTISRDNAKNTVYLQMNSLKPEDNAVYYCAARWYSSTQTGNYWGQGTQVTVSS” the “polyreactivity (PSR sort gate)” value was “high polyreactivity”.
